Numbering of substitutions follows the chain as printed. Values belong to the binder of their own block, whether it stands above or below them.
Legend:
[1] = target: T1, recombinant human PDGF-BB (human, UniProt P01127 82-190, biotin-labelled in the binding and competition ELISAs (sites not given)); assay: cell-based or functional assay
[2] = target: recombinant rat PDGF-BB (rat, UniProt Q05028 74-182); assay: cell-based or functional assay
[3] = target: T1, recombinant human PDGF-BB; assay: Biacore SPR, antibody captured by anti-human Fc, PDGF-BB injected
Protocol: For example, approximately 9000 RU of goat anti-human Fc specific polyclonal antibody (Thermo Fisher Scientific Inc., Rockford, Ill.) diluted in 10 mM sodium acetate (pH 4.5) is directly immobilized across a CM5 research grade biosensor chip using a standard amine coupling kit according to manufacturer's instructions and procedures at 25 μg/ml. Unreacted moieties on the biosensor surface were blocked with ethanolamine. For kinetic analysis, rate equations derived from the 1:1 Langmuir binding model were fitted simultaneously to multiple antigen injections (using global fit analysis) with the use of Scrubber 2 (BioLogic Software), Biacore Biaevaluation 4.0.1 software or Biacore T100 Evaluation software. Purified antibodies or DVD-Ig molecules were diluted in running buffer for capture across goat anti-human Fc reaction surfaces. Antibodies or DVD-Ig molecules to be captured as a ligand (1 μg/ml) were injected over reaction matrices at a flow rate of 10 μl/minute. During the assay, all measurements were referenced against the capture surface alone (i.e., with no captured antibody or DVD-Ig molecule). […] The equilibrium dissociation constant KD (M) of the reaction between antibodies and the target antigen was then calculated from the kinetic rate constants by the following formula: KD=Koff/Kₒₙ. Binding was recorded as a function of time and kinetic rate constants were calculated.

[4] = target: T1, recombinant human PDGF-BB; assay: direct binding ELISA, biotin-hPDGF-BB on neutravidin plates, antibody titrated
Protocol: Plates were then washed four times with wash buffer (TBS, 0.05% Tween-20). The sample molecule titration was added to the coated plate at 50 μL in duplicate and incubated for one hour at 25° C. with shaking. Following incubation, plates were washed four times with wash buffer. The appropriate anti-species-IgG HRP conjugate was in assay diluent (10% Superblock containing 0.05% surfactamps) and added to plates (50 μL) for one hour at 25° C. with shaking. Plates were washed four times with wash buffer and developed with the addition of Enhanced K-blue TMB substrate (Neogen, cat#308177). The reaction was stopped with 2N sulfuric acid (VWR, cat# BDH3500-1) and the absorbance was read at 450 nm-570 nm. […] Data was analyzed using Softmax Pro 4.8 software and IC₅₀ values calculated using a sigmoidal dose response (variable slope) fit in GraphPad Prism 5.

[5] = target: T1, recombinant human PDGF-BB; assay: receptor competition ELISA: antibody pre-incubated with biotin-hPDGF-BB, binding to coated hPDGF-Rβ-Fc
Protocol: (§1) Plates were then washed four times with wash buffer (TBS, 0.05% Tween-20) and blocked with Superblock blocking buffer (Thermo Scientific, cat#37535). During the blocking step, supernatants, antibodies, benchmark compounds or DVD-Ig were diluted in assay diluent (10% Superblock containing 0.05% surfactamps) and an eight point titration of each sample molecule was performed. […] Following incubation, plates were washed four times with wash buffer. Detection reagent Streptavidin-polyHRP-40 (Fitzgerald, cat#65r-s104phrp) was diluted in assay diluent and added to plates (50 μL) for 45 minutes at 25° C. with shaking. Plates were washed four times with wash buffer and developed with the addition of Enhanced K-blue TMB substrate (Neogen, cat#308177). The reaction was stopped with 2N sulfuric acid (VWR, cat# BDH3500-1) and the absorbance was read at 450 nm-570 nm. […] Data was analyzed using Softmax Pro 4.8 software and IC₅₀ values calculated using a sigmoidal dose response (variable slope) fit in GraphPad Prism 5.

[6] = target: T2, recombinant human PDGF-BB (human, UniProt P01127 82-190); assay: cell-based or functional assay
[7] = target: T2, recombinant human PDGF-BB; assay: competition ELISA: antibody pre-incubated with hPDGF-BB-biotin, then added to coated hPDGF-Rβ-Fc (competitor)
Protocol: as §1

[8] = target: T3, VEGF-A (recombinant; human VEGF-A 165) (human, UniProt P15692 207-395); assay: Biacore SPR; binding protein captured on goat anti-human Fc, antigen injected (Example 1.1)
T3 construct: also called hVEGF165

[9] = target: T4, PDGF-BB (recombinant; human PDGF-BB) (human, UniProt P01127 82-190, limits assumed); assay: as above
T4 construct: PDGF-BB is a homodimer of two B chains; also called hPDGF-BB

[10] = target: T5, recombinant human PDGF-Rβ-Fc (R&D Systems #385-PR) (human, UniProt P09619 33-530); assay: competition ELISA: antibody on coated hPDGFRβ-Fc against hPDGF-BB-biotin (Example 1.27)
T5 construct: Bought reagent; also called hPDGFRβ-Fc; huPDGF Rβ; not shown: Fc part of the bought fusion protein
Protocol: (§2) Plates were then washed four times with wash buffer (TBS, 0.05% Tween-20) and blocked with Superblock blocking buffer (Thermo Scientific, cat#37535). During the blocking step, supernatants, antibodies and benchmark compounds were diluted in assay diluent (10% Superblock containing 0.05% surfactamps) and an eight point titration of each sample molecule was performed. The samples were added to wells and incubated for 30 minutes at 25° C. with shaking. […] This was added to wells (10 ng/mL/3.97E-10 M final concentration) and incubation was continued for 35 minutes at 25° C. with shaking. Following incubation, plates were washed four times with wash buffer. Detection reagent Streptavidin-polyHRP-40 (Fitzgerald, cat#65r-s104phrp) was diluted in assay diluent and added to plates (50 μL) for 45 minutes at 25° C. with shaking. Plates were washed four times with wash buffer and developed with the addition of Enhanced K-blue TMB substrate (Neogen, cat#308177). The reaction was stopped with 2N sulfuric acid (VWR, cat# BDH3500-1) and the absorbance was read at 450 nm-570 nm. […] Data was analyzed using Softmax Pro 4.8 software and IC₅₀ values calculated using a sigmoidal dose response (variable slope) fit in GraphPad Prism 5.

[11] = target: T6, recombinant human PDGF-Rβ-Fc (human, UniProt P09619 33-530); assay: competition ELISA: antibody added to coated hPDGF-Rβ-Fc, then hPDGF-BB-biotin (competitor)
T6 construct: also called hPDGFRβ-Fc; hPDGF-Rβ; not shown: Fc part of the bought fusion protein
Protocol: as §2

T1 sequence (P01127 82-190 limits assumed): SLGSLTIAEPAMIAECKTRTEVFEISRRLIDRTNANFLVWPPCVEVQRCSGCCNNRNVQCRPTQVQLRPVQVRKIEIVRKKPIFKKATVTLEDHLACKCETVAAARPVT
T2 sequence (P01127 82-190 limits assumed): as above
T5 sequence (P09619 33-530 limits assumed): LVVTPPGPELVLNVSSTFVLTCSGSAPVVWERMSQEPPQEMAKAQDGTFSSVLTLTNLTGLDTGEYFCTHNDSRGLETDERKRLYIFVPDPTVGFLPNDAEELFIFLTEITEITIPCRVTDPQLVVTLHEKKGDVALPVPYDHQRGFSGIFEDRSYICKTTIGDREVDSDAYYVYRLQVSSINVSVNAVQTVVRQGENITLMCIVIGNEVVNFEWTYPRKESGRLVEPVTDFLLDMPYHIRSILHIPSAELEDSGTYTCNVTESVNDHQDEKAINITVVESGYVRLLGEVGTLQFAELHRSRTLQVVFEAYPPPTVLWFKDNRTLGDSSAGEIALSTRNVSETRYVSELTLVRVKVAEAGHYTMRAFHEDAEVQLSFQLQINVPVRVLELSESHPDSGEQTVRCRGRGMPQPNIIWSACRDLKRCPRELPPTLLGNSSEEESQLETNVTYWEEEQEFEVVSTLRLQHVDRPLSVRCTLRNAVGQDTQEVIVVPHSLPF
T6 sequence (P09619 33-530 limits assumed): as above
Chain of recombinant rat PDGF-BB (Q05028 74-182 limits assumed): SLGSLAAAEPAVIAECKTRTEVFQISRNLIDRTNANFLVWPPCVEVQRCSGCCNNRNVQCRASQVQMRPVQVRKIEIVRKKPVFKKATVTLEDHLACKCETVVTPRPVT
T4 sequence (P01127 82-190 limits assumed): as the sequence (P01127 82-190 limits assumed) above
T3 sequence (P15692 other isoform, or with tags, fused parts or gaps limits assumed): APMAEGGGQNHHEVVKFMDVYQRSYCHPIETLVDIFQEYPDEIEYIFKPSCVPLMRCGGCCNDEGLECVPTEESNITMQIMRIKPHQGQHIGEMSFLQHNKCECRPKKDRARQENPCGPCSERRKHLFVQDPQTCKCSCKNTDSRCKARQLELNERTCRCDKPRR

huPDGF-BB Neutralization Potency (nM) in NIH-3T3 Cells [1]: 0.058 nM | ratPDGF-BB Neutralization Potency (nM) in NIH-3T3 Cells [2]: 0.075 nM | Kd [3]: ≤ 12 pM | koff [3]: 0.00012 s⁻¹ | kon [3]: ≥ 1e+07 M⁻¹ s⁻¹ | EC50 [4]: 380 pM | IC50 [5]: 791 pM
B1: chBDI-9E8 (antibody, V domains shown)
VH: QVTLKESGPGILQPSQTLSLTCTFSGFSLSTYGMGVGWIRQPSGKGLEWLANIWWDDDKYYNPSLKNRLTISKDTSNNQAFLKITNVDTADTATYYCARIESIGTTYSFDYWGQGVMVTVSS
VL: QFTLTQPKSVSGSLRSTITIPCERSSGDIGDSYVSWYQQHLGRPPINVIYADDQRPSEVSDRFSGSIDSSSNSASLTITNLQMDDEADYFCQSYDINIDIVFGGGTKLTVL
notes: also called chimeric BDI-9E8-E7

huPDGF-BB Neutralization Potency (nM) in NIH-3T3 Cells [1]: 0.275 nM | ratPDGF-BB Neutralization Potency (nM) in NIH-3T3 Cells [2]: 0.17 nM | Kd [3]: ≤ 15 pM | koff [3]: 0.00015 s⁻¹ | kon [3]: ≥ 1e+07 M⁻¹ s⁻¹ | EC50 [4]: 120 pM | IC50 [5]: 1040 pM
B2: chBDI-5H1 (antibody, human IgG1, V domains shown)
VH: QVTLKESGPGILQPSQTLSLTCTFSGFSLSTFGMGVGWIRQPSGKGLEWLANIWWDDDKYYNPSLKNRLTISKDTSNSQAFLEITNVDTADTATYYCARISTGISSYYVMDAWGQGASVTVSS
VL: B1 VL with S32T, A51G, D52N, I96S, N97D
notes: also called chimeric BDI-5H1-F6

hPDGF-BB IC50 (nM), hPDGF-BB-induced NIH-3T3 cell proliferation [6]: 0.309 nM | IC50 [7]: 1730 pM
B3: hBDI-9E8.11 (antibody, V domains shown)
VH: EVQLVESGGGLVQPGGSLRLSCAFSGFSLSTYGMGVGWIRQAPGKGLEWLANIWWDDDKYYNPSLKNRLTISKDTSKNQAYLQINSLRAEDTAVYYCARIESIGTTYSFDYWGQGTLVTVSS
VL: DFVLTQSPDSLAVSLGERATINCERSSGDIGDSYVSWYQQKPGQPPKNVIYADDQRPSGVPDRFSGSGSGNSASLTISSLQAEDVAVYFCQSYDINIDIVFGGGTKVEIK
notes: Humanized IgG from pHybE expression vectors, made in HEK293 6E and protein A purified

Kd [8]: 13 pM | kon [8]: 4.5e+06 M⁻¹ s⁻¹ | Kd [9]: 4.2 pM | kon [9]: 3.2e+07 M⁻¹ s⁻¹
B4: CODV022 (PR-1577056), anti-human VEGF-A/anti-human PDGF-BB cross-over DVD-Ig molecule (bispecific antibody, human IgG1, kappa, L234A L235A)
heavy: EVQLVQSGSELKKPGASVKVSCKASGYTFTNYGMYWVRQAPGQGLEWMGWINTETGKPTYADDFKGRFVFSLDTSVSTAYLQISSLKAEDTAVYYCARTNYYYRSYIFYFDYWGQGTMVTVSSGGGGSGGGEFVLTQSPGTLSLSPGERATLSCERSSGDIGESYVSWYQQKPGQAPRLVIYADDQRPSGIPDRFSGSGSGTDFTLTISRLEPEDFAVYYCQSYDINIDIVFGGGTKVEIKGGGSGASTKGPSVFPLAPSSKSTSGGTAALGCLVKDYFPEPVTVSWNSGALTSGVHTFPAVLQSSGLYSLSSVVTVPSSSLGTQTYICNVNHKPSNTKVDKKVEPKSCDKTHTCPPCPAPEAAGGPSVFLFPPKPKDTLMISRTPEVTCVVVDVSHEDPEVKFNWYVDGVEVHNAKTKPREEQYNSTYRVVSVLTVLHQDWLNGKEYKCKVSNKALPAPIEKTISKAKGQPREPQVYTLPPSREEMTKNQVSLTCLVKGFYPSDIAVEWESNGQPENNYKTTPPVLDSDGSFFLYSKLTVDKSRWQQGNVFSCSVMHEALHNAYTQKSLSLSPGK
light: EVTLRESGPALVKPTQTLTLTCTFSGFSLSTYGMGVGWIRQPPGKALEWLANIWWDDDKYYNPSLKNRLTISKDTSKNQVVLTMTNMDPVDTATYYCARIESIGTTYSFDYWGQGTMVTVSSGGGGSDTVLTQSPATLSLSPGERATLSCRASESVSTHMHWYQQKPGQAPRLLIYGASNLESGVPARFSGSGSGTDFTLTISSLEPEDFAVYFCQQSWNDPFTFGQGTKLEIKGGSRTVAAPSVFIFPPSDEQLKSGTASVVCLLNNFYPREAKVQWKVDNALQSGNSQESVTEQDSKDSTYSLSSTLTLSKADYEKHKVYACEVTHQGLSSPVTKSFNRGEC
notes: Cross-over DVD-Ig: the variable domains of the 4G8.3 (VEGF) and 9E8.4E (PDGF) sites are spread over both chains; also called CO-DVD-Ig

IC50 [10]: 832 pM
B5: BDE-3C9-G4 (antibody, V domains shown)
VH: EVQLVESGGGLVQPGRSLKLSCAASGFTFSNYGMAWVRQAPTQGLEWVASITNSGGNTYYRDSVKGRFTISRDSAKNTQYLQMDSLRSEDTATYFCARHTPGANYFDYWGQGLMVTVSS
VL: DIQMTQSPPSLSASLGEKVTITCQASQSIKNYIAWYQLKPGTAPRLLMRYTSTLESGTPSRFSGSGSGRDYSFSISNVESEDIASYYCVQYANLYTFGGGTKLELK
notes: Rat hybridoma anti-human PDGFR-B monoclonal antibody, isotype IgG2b/κ

IC50 [11]: 217 pM
B6: hBDE-3C9.1 (antibody, V domains shown)
VH: B5 VH with R16G, K19R, T42G, Q43K, S74N, D84N, S88A, T93V, L113T
VL: DIQMTQSPSSLSASVGDRVTITCQASQSIKNYIAWYQLKPGKAPRLLMRYTSTLESGTPSRFSGSGSGRDYTFTISSLQPEDIATYYCVQYANLYTFGGGTKVEIK
notes: Humanized anti-human PDGFR-B IgG from pHybE expression vectors

IC50 [11]: 260 pM
B7: hBDE-3C9.2 (antibody, V domains shown)
VH: EVQLVESGGGLVQPGGSLRLSCAASGFTFSNYGMAWVRQAPGKGLEWVASITNSGGNTYYRDSVKGRFTISRDNAKNSLYLQMNSLRAEDTAVYYCARHTPGANYFDYWGQGTMVTVSS
VL: B6 VL with L38Q, M48I, T58V
notes: as for B6

hPDGF-BB IC50 (nM), hPDGF-BB-induced NIH-3T3 cell proliferation [6]: 0.061 nM | IC50 [7]: 4300 pM
B8: hBDI-9E8.4 (antibody, V domains shown)
VH: EVTLRESGPALVKPTQTLTLTCTFSGFSLSTYGMGVGWIRQPPGKALEWLANIWWDDDKYYNPSLKNRLTISKDTSKNQVVLTMTNMDPVDTATYYCARIESIGTTYSFDYWGQGTMVTVSS
VL: EFVLTQSPGTLSLSPGERATLSCERSSGDIGDSYVSWYQQKPGQAPRLVIYADDQRPSGIPDRFSGSGSGTDFTLTISRLEPEDFAVYYCQSYDINIDIVFGGGTKVEIK
notes: Humanized IgG from pHybE expression vectors, made in HEK293 6E and protein A purified; also called h9E8.4

IC50 [10]: 527 pM
B9: BDE-4F2-D4 (antibody, V domains shown)
VH: QVQLKESGPGLMQPSQTLSLTCTVSGFSLTNYGVSWVRQFPGKGLEWIAAISSGGSTYYNSALKSRLSISRDTSRSQVFLKMNSLLTEDTAFYFCTRVYYGSNYFDYWGPGVMVTVSS
VL: DIVMTQTPSSQAVSAGEKVTMSCKSSQSLLYGGDQKNFLAWYQQKPGQSPKLLIYLASTRESGVPDRFIGSGSGTDFTLTISSVQAEDLADYYCQQHYGYPFTFGSGTKLEIK
notes: Rat hybridoma anti-human PDGFR-B monoclonal antibody, isotype IgG2a/κ

Source: patent publication US20170015742A1 (published 2017)
